Experimental data from the array DNA melting data of Ke et al..

Assay: melting temperature; UV melt of duplexes

Substance | Tm (sodium 0.07 M, strand 2 µM) | Tm (sodium 0.12 M, strand 2 µM) | Tm (sodium 0.22 M, strand 2 µM) | Tm (sodium 0.62 M, strand 2 µM) | Tm (sodium 1.02 M, strand 2 µM) | Tm (sodium 0.12 M, strand 5 µM) | Tm (sodium 0.12 M, strand 6 µM) | Tm (sodium 1 M, strand 2 µM) | Tm (sodium 1 M, strand 0.0001 M) | Tm (sodium 1 M, strand 3 µM)
ACCGACGACGCTGATCCGAT+ATCGGATCAGCGTCGTCGGT ((((((((((((((((((((+)))))))))))))))))))) | 66 °C | 69.1 °C | 72.6 °C | 76.8 °C | 77.3 °C | – | – | – | – | –
AAAAAAAGCTTTTTTT+AAAAAAAGCTTTTTTT ((((((((((((((((+)))))))))))))))) | – | – | – | – | – | 44 °C | – | – | – | –
ACGGGTCCCCGCACCGCACCGCCAG+CTGGCGGTGCGGTGCGGGGACCCGT (((((((((((((((((((((((((+))))))))))))))))))))))))) | 76.8 °C | 79.9 °C | 84 °C | 87.1 °C | 88.3 °C | – | – | – | – | –
CGAGCTTATCCCTATCCCTC+GAGGGATAGGGATAAGCTCG ((((((((((((((((((((+)))))))))))))))))))) | 56 °C | 60.2 °C | 64.1 °C | 68.5 °C | 70.3 °C | – | – | – | – | –
AATATATGAATTCTAATTAA+TTAATTAGAATTCATATATT ((((((((((((((((((((+)))))))))))))))))))) | – | – | – | – | – | – | 44.7 °C | – | – | –
CGCGCCACGTGTGATCTACAGCCGTTCGGC+GCCGAACGGCTGTAGATCACACGTGGCGCG ((((((((((((((((((((((((((((((+)))))))))))))))))))))))))))))) | 72.7 °C | 76.3 °C | 79.5 °C | 83.4 °C | 84.5 °C | – | – | – | – | –
GATATAGCAAAATTCTAAGTTAATA+TATTAACTTAGAATTTTGCTATATC (((((((((((((((((((((((((+))))))))))))))))))))))))) | 49.1 °C | 53.5 °C | 57.7 °C | 63.3 °C | 66.1 °C | – | – | – | – | –
ACAGCGAATGGACCTACGTGGCCTT+AAGGCCACGTAGGTCCATTCGCTGT (((((((((((((((((((((((((+))))))))))))))))))))))))) | 68.1 °C | 72.1 °C | 76 °C | 79.4 °C | 81 °C | – | – | – | – | –
AGAAGGGAGAGAAAAAGAAA+TTTCTTTTTCTCTCCCTTCT ((((((((((((((((((((+)))))))))))))))))))) | – | – | – | – | – | – | – | 61.9 °C | – | –
GTATAACCGGTTATAC+GTATAACCGGTTATAC ((((((((((((((((+)))))))))))))))) | – | – | – | – | – | – | – | – | 65.9 °C | –
GCTAAAAAGAGAGAGAGATCG+CGATCTCTCTCTCTTTTTAGC (((((((((((((((((((((+))))))))))))))))))))) | – | – | – | – | – | – | – | – | – | 69 °C
CGGGACCAACTAAAGGAAAT+ATTTCCTTTAGTTGGTCCCG ((((((((((((((((((((+)))))))))))))))))))) | 53.7 °C | 57.7 °C | 61.7 °C | 66.7 °C | 68.5 °C | – | – | – | – | –
AAAGTACATCAACATAGAGAATTGCATTTC+GAAATGCAATTCTCTATGTTGATGTACTTT ((((((((((((((((((((((((((((((+)))))))))))))))))))))))))))))) | 58.3 °C | 61.9 °C | 66.1 °C | 71.3 °C | 73.2 °C | – | – | – | – | –
CCACTATACCATCTATGTAC+GTACATAGATGGTATAGTGG ((((((((((((((((((((+)))))))))))))))))))) | 51.1 °C | 54.6 °C | 58.4 °C | 62.2 °C | 64.4 °C | – | – | – | – | –
AACCTGCAACATGGAGTTTTTGTCTCATGC+GCATGAGACAAAAACTCCATGTTGCAGGTT ((((((((((((((((((((((((((((((+)))))))))))))))))))))))))))))) | 64.5 °C | 68.3 °C | 72.5 °C | 77.7 °C | 78.7 °C | – | – | – | – | –
CTCAACTTGCGGTAAATAAATCGCTTAATC+GATTAAGCGATTTATTTACCGCAAGTTGAG ((((((((((((((((((((((((((((((+)))))))))))))))))))))))))))))) | 60.9 °C | 64.8 °C | 68.7 °C | 74.4 °C | 75.5 °C | – | – | – | – | –
AAGGCGAGTCAGGCTCAGTG+CACTGAGCCTGACTCGCCTT ((((((((((((((((((((+)))))))))))))))))))) | 64.5 °C | 67.7 °C | 71.4 °C | 75.1 °C | 76.3 °C | – | – | – | – | –
AAAAAAAAGAATTCTTTTTTTT+AAAAAAAAGAATTCTTTTTTTT ((((((((((((((((((((((+)))))))))))))))))))))) | – | – | – | – | – | – | 49.9 °C | – | – | –
